Series [1] has as its target WalR T101M fused to SmBIT or LgBIT (split luciferase) (S. aureus ATCC29213) (UniProt Q7A8E1). Nature of the series: split reporter.
Series [2] deals with WalR, wild type, full-length, C-terminal 6xHis, phosphorylated by PknB^CYTO with ATP (S. aureus ATCC29213) (UniProt Q7A8E1). Nature of the series: SEC-MALS. (In general: Size exclusion chromatography separates by hydrodynamic size, large species first.)
The target in series [3] is T1, WalR wild type fused to SmBIT or LgBIT (split luciferase) (S. aureus ATCC29213, UniProt Q7A8E1 1-233).
T1 sequence (looked up): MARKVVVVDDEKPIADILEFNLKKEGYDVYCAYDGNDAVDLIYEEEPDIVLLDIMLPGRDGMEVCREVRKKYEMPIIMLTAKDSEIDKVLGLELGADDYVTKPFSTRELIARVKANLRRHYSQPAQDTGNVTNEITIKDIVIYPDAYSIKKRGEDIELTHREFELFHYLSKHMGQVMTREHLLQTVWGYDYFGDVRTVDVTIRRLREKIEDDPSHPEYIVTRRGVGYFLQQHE
Nature of the series: split reporter.

The series “split reporter” deals with the molecule itself. Kind of series: split reporter.

“WalR T101M fused to SmBIT or LgBIT (split luciferase) (from UniProt Q7A8E1 1-233) (natural protein)”: in series [1], the peak luciferase signal in the wild type background came to 4340 RLU, the peak luciferase signal in the ΔpknB background came out at 3650 RLU and the percent decrease of peak luciferase signal area against wild type WalR/WalR stood at 65.2%.

Broadly, the stoichiometry N is the number of molecules, sites or subunits per partner or assembly. In turn, “WalR, wild type, full-length, C-terminal 6xHis, phosphorylated by PknB^CYTO with ATP (from UniProt Q7A8E1 1-233) (natural protein)” yielded a stoichiometry N in series [2] of 2.

B1: WalR T101M fused to SmBIT or LgBIT (split luciferase) (natural protein, S. aureus ATCC29213, UniProt Q7A8E1 1-233, looked up)
chain: MARKVVVVDDEKPIADILEFNLKKEGYDVYCAYDGNDAVDLIYEEEPDIVLLDIMLPGRDGMEVCREVRKKYEMPIIMLTAKDSEIDKVLGLELGADDYVMKPFSTRELIARVKANLRRHYSQPAQDTGNVTNEITIKDIVIYPDAYSIKKRGEDIELTHREFELFHYLSKHMGQVMTREHLLQTVWGYDYFGDVRTVDVTIRRLREKIEDDPSHPEYIVTRRGVGYFLQQHE
Turning to B1, the “percent decrease of peak area against wild type WalR/WalR” value in series [3] turned out to be 56.5%.

B2: WalR T101A fused to SmBIT or LgBIT (split luciferase) (natural protein, S. aureus ATCC29213, UniProt Q7A8E1 1-233, looked up)
chain: MARKVVVVDDEKPIADILEFNLKKEGYDVYCAYDGNDAVDLIYEEEPDIVLLDIMLPGRDGMEVCREVRKKYEMPIIMLTAKDSEIDKVLGLELGADDYVAKPFSTRELIARVKANLRRHYSQPAQDTGNVTNEITIKDIVIYPDAYSIKKRGEDIELTHREFELFHYLSKHMGQVMTREHLLQTVWGYDYFGDVRTVDVTIRRLREKIEDDPSHPEYIVTRRGVGYFLQQHE
For the molecule B2, in the series “split reporter”, the “percent decrease of peak area against wild type WalR/WalR” value was 56.7%.

B3: WalR T101S fused to SmBIT or LgBIT (split luciferase) (natural protein, S. aureus ATCC29213, UniProt Q7A8E1 1-233, looked up)
chain: MARKVVVVDDEKPIADILEFNLKKEGYDVYCAYDGNDAVDLIYEEEPDIVLLDIMLPGRDGMEVCREVRKKYEMPIIMLTAKDSEIDKVLGLELGADDYVSKPFSTRELIARVKANLRRHYSQPAQDTGNVTNEITIKDIVIYPDAYSIKKRGEDIELTHREFELFHYLSKHMGQVMTREHLLQTVWGYDYFGDVRTVDVTIRRLREKIEDDPSHPEYIVTRRGVGYFLQQHE
Regarding B3, the “percent decrease of peak area against wild type WalR/WalR” value in the series “split reporter” was determined as 52.4%.

Values taken from paper doi:10.1101/2025.07.12.664526 (bioRxiv, 2025).
